{"source": "patent US20250127942A1", "about": "(MEDICOVESTOR, published 2025)", "binders": {"B1": {"name": "mouse-human chimeric anti-Sp17 IgG2a/kappa monoclonal antibody chAB2 (antibody, V domains shown)", "VH": "QVQLQQSGAEVKKPGSSVKVSCKASGGTFSSYAISWVRQAPGQGLEWMGRIIPILGIANYAQKFQGRVTITADKSTSTAYMELSSLRSEDTAVYYCARPSEEVVAAYGAFDIWGQGTTVTVSS", "VL": "EIVLTQSPLSLPVRPGEPASISCRASQSLLRSDGFNYLDWYLQKPGQSPQLLVYLGSNRASGVPDRFSGSGSGTDFTLKISRVEAEDVGVYYCMQAVQTPYIFGQGTKLEIK", "notes": "also called anti-Sp17 antibody chAB2; chimeric monoclonal antibody (chAB2); not shown: mouse IgG2a heavy chain constant region; mouse kappa light chain constant region"}}, "target": "T1, recombinant 6His-Sp17 protein (human, UniProt Q15506 1-151, limits assumed)", "T1 construct": "The species is not restated for this recombinant protein; not shown: 6His tag", "T1 sequence (looked up)": "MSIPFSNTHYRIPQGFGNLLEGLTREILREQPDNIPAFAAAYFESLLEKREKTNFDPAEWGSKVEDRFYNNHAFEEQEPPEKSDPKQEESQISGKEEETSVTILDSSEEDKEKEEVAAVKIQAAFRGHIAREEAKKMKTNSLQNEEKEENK", "assay": "SPR (Biacore T200), 6His-Sp17 at 6.25-300 nM as analyte", "excerpt": "The lines correspond, from highest to lowest, to fitted cycles for 300 nanomolar, 100 nanomolar, 50 nanomolar, 25 nanomolar, 12.5 nanomolar, and 6.25 nanomolar concentrations of 6His-Sp17.\nThe nucleotide sequences encoding the VH and VL regions of Example 1 were cloned into a mouse IgG2a heavy chain gene and a mouse kappa light chain gene, respectively, and expressed in CHO—S cells to produce a mouse-human chimeric antibody, which was named chAB2. Successful generation of the antibody was confirmed by SDS-PAGE and western blotting using anti-mouse heavy and light chain antibodies and recombinant Sp17 protein (FIGS. 2 & 3). The chAB2 antibody was reactive to mouse surface Sp17 protein expressed on the mouse ovarian cancer cell line ID8 (FIG. 4).", "data": [{"binder": "B1", "values": [{"measurement": "Kd", "result": 2.07, "unit": "nM"}, {"measurement": "koff", "result": 0.00013, "unit": "s⁻¹"}, {"measurement": "kon", "result": 62600, "unit": "M⁻¹ s⁻¹"}]}]}
